Kd data for one substance are collected here from article doi:10.1101/2021.10.26.465098.

The target in the test is HAdV-C5, -D26 and -B35. The experiment in a line: SPR. (In general: SPR reads the build-up and loss of mass on a sensor chip optically.)

Broadly, the Kd is the constant that tells how readily two partners part at equilibrium.

As for “human neutrophil protein 1 (HNP-1) (from UniProt P59665 65-94) (peptide)”, the Kd fell in the range of 37 to 76 nM.
